The values below come from paper PMC6336196 (Nature, 2018).

Read-outs that look alike come from different tables or passages of the source.

Data set [1] concerns the molecule itself. As to the kind of experiment: cryo-EM structure.
Data set [2] concerns the molecule itself. As to the kind of experiment: cryo-EM structure. The source holds these as a separate data set.

B1: Danio rerio (zebrafish) mitochondrial calcium uniporter (natural protein, zebrafish (Danio rerio), UniProt Q08BI9 35-376, looked up)
chain: QGTKTEALSMSLGGHQTVRRAHGLRTGGRCALFCHPSATLTAQGWKGSPSWQVQRLLCSPAAEDVSVVYQNGLPVISVRLPSRRERCQFTLKPLSDTVGVFLQQLQAEDRGIDRVTIYSADGARIASSTGIDILLMDNFKLVINDTSYLVQPPRRDLLPHEDGERLNDVKILVQQLYTTLRIEEHQLNKERELIGRLEDLNSQLQPLEKVKEELSKKAERRTTWVLWGGMAYMATQFGILARLTWWEYSWDIMEPVTYFITYGTAMAMYAYFVLTRQEYLYPDARDRQYLLFFHRGAKRTRFDIEKYNKLKDAIAEAELDLKRLRDPLQLNLPIQQIDTSKD
For orientation: stoichiometry N means the number of molecules, sites or subunits per partner or assembly. Turning to B1, the “stoichiometry N” value in data set [1] is 4.

B2: Cyphellophora europaea mitochondrial calcium uniporter (natural protein, UniProt W2SDE2 1-346, looked up)
chain: MTKGKLLTTPSRLLKLVLPLSTVDHNTDRKDVAPLALLVHPQQPLSYLERLIQAELPPPDPQDSKSTTRSVTFRAMEAKDDEIKPRKKADTEGGGGSDGSVQSYSGAGREGEGKDEGEFVRWSPSTEIGDFIRDAARAKEFEVEIEGSPGVIKVAVPSFNDRTYYLRQRLRRTSRKISKLAAIKEECDKAAHRGAQRIALAGCGGLIGYWYIVYRLTFETDLGWDVMEPVTYLVGLSTLIGGYMWFLWHNREVSYRSALNITVSARQNKLYQAKGFSLQDWEGYLEEANAMRREIKAVASEYDVDWNETQDEGGDEKVTKALRDERKNNNGTKNKSKEGEEDDEDD
For the protein B2, the “stoichiometry N” value in data set [2] is 4.
